Measured values as given in patent US20020119154A1 (University of Pennsylvania, published 2002).

B1: human prolactin (hPRL) (ligand, UniProt P01236 29-227, looked up)
chain: LPICPGGAARCQVTLRDLFDRAVVLSHYIHNLSSEMFSEFDKRYTHGRGFITKAINSCHTSSLATPEDKEQAQQMNQKDFLSLIVSILRSWNEPLYHLVTEVRGMQEAPEAILSKAVEIEEQTKRLLEGMELIVSQVHPETKENEIYPVWSGLPSLQMADEESRLSAYYNLLHCLRRDSHKIDNYLKLLKCRIIHNNNC
notes: Serum PRL and added hPRL are treated as one molecule; also called serum PRL; plasma PRL
B2: recombinant human prolactin binding protein (rhPRLBP) (receptor, UniProt P16471 25-234, looked up)
chain: QLPPGKPEIFKCRSPNKETFTCWWRPGTDGGLPTNYSLTYHREGETLMHECPDYITGGPNSCHFGKQYTSMWRTYIMMVNATNQMGSSFSDELYVDVTYIVQPDPPLELAVEVKQPEDRKPYLWIKWSPPTLIDLKTGWFTLLYEIRLKPEKAAEWEIHFAGQQTEFKILSLHPGQKYLVQVRCKPDHGYWSAWSPATFIQIPSDFTMND

Legend:
[1] = molecular target: B2; experiment: surface plasmon resonance, various concentrations of rPRLBP; binding site I of PRL; rPRLBP in solution at various concentrations
human prolactin (hPRL) = molecular target: B1; experiment: cell-based or functional assay

| Kd [1] [nM] | rat Nb2-11C lymphoma cell proliferation (tritiated thymidine uptake), 50 pM hPRL, 0-100 nM rhPRLBP (human prolactin (hPRL)) [fold] | Binder |
| --- | --- | --- |
| 13.4 |  | B1 |
|  | 3 | B2 |
